Results as given in patent publication US20110195494A1 (Boehringer Ingelheim, published 2011).
Positions count from the first letter of the chain named.

T1: human DLL1 (Alexis) (human, UniProt O00548 18-545, limits assumed)
T1 construct: also called hDLL1; rhDLL1
T1 sequence (looked up): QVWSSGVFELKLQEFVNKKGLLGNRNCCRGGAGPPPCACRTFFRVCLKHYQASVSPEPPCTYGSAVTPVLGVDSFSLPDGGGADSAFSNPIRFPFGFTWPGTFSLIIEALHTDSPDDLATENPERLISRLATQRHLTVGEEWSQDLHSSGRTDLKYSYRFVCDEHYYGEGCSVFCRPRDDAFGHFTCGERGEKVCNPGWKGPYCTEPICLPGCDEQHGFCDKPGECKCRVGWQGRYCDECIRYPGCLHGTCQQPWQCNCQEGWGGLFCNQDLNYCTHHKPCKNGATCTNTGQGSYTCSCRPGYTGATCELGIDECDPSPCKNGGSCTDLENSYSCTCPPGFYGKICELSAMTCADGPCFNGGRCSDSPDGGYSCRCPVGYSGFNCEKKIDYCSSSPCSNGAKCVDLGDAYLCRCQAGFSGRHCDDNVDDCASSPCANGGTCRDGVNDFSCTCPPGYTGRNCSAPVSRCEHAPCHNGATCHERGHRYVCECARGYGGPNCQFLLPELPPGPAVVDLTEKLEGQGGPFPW

B1: DLLBII129B05 (VHH)
VHH: EVQLVESGGGLVQAGGSLRLSCAASGRTFSSYAMAWYRQAPGKEREYVAAIRWSGGTAYYADSVQGRFTISRDNAKNTVYLQMNSLKPEDTAVYYCANRAPDTRLAPYEYDHWGQGTQVTVSS
notes: not shown: C-terminal c-myc tag and (His)6 tag
B2: DLLBII129E11 (VHH)
VHH: B1 VHH with A106R, E109L, H112Y
notes: as for B1
B3: DLLBII129D08 (VHH)
VHH: B1 VHH with A106E, E109L, H112Y
notes: as for B1
B4: DLLBII015 (VHH)
VHH: EVQLVESGGGLVQPGGSLRLSCAASGFTIGSYDMSWVRRSPGKGPEWVSAINSGGGSTYYADYVKGRFTISRDNAKNTLYLQMNSLKPEDTAVYYCAADRYIWARQGEYWGAYAYDYWGQGTQVTVSS
notes: as for B1
B5: DLLBII133G05 (VHH)
VHH: B4 VHH with I29F, A61T
notes: as for B1
B6: DLLBII133A09 (VHH)
VHH: B4 VHH with I29F
notes: as for B1
B7: DLLBII136C07 (VHH)
VHH: B4 VHH with I29F, A50S, A114E
notes: as for B1
B8: DLLBII33C05 (VHH)
VHH: EVQLVESGGGLVQAGGSLRLSCAASGFTLDNYVIGWFRQAPGKEREEVSCISSSGGSTDYLDSVKGRFTISRDNAKNTVYLQMNSLKPEDTAVYYCAADSLPCYYDKMVYDYWGQGTQVTVSS
notes: tested as periplasmic extract; also called DLLBII33C5; not shown: C-terminal c-myc tag and His6 tag
B9: DLLBII28B06 (VHH)
VHH: EVQLVESGGGLVQAGGSLRLSCAASGSTFSTYAMGWYRQDPGNQRELVAAISSDGSTHYADSVKGRFTISRDNAKNTVYLQMNSLKPEDTAVYYCYAPVKVAGLEYDYWGQGTQVTVSS
notes: tested as periplasmic extract; also called DLLBII28B6; not shown: C-terminal c-myc tag and His6 tag
B10: DLLBII6B11 (VHH)
VHH: EVQLVESEGGLVQAGGSLRLSCAASGSTFSSYAMGWYRQAPGKQRELVAVISNGGITNYPNSVKGRFTISRDNAKNTVYLQMNSLKPEDTAVYYCFYSGSYYYPTDVHEYDYWGQGTQVTVSS
notes: also called DLLBII06B11; not shown: C-terminal c-myc tag and His6 tag
B11: DLLBII19F04 (VHH)
VHH: EVQLVESGGGLVQAEGSLRLSCAASGSTFSTYAMAWYRQAPGKQRELVAGISFDGSTHYAESVKGRFTISRDDAKNTVSLQMNSLKPEDAAVYYCYSVHPSTGFGSWGQGTQVTVSS
notes: also called DLLBII19F4; not shown: C-terminal c-myc tag and His6 tag
B12: DLLBII17G10 (VHH)
VHH: EVQLVESGGGLVQAGGSLRLSCAASGSTFSSYAMGWYRHQAPGKQRELVAAISSDGSTHYADSVKGRFTISRDNAKNTMYLQMNSLKPEDTAVYYCNTKTFGSNWYDDYWGQGTQVTVSS
notes: tested as periplasmic extract; not shown: C-terminal c-myc tag and His6 tag
B13: DLLBII17B03 (VHH)
VHH: EVQLVESGGGLVQPGGSLRLSCAASGFTFENYALGWFRQAPGKEREWVSCISSSDGTTYYADSVKGRFTISRDNVKNTVYLQMNRLKPEDTAIYYCALSLGSSWCAYDYWGQGTQVTVSS
notes: tested as periplasmic extract; also called DLLBII17B3; not shown: C-terminal c-myc tag and His6 tag
B14: DLLBII7B05 (VHH)
VHH: EVQLVESGGGLVQAGGSLRLSCAASGFALDYYAVGWFRQAPGKEREGVSCISSRGGSTFYADSVKGRFTTSRNNAKNTVYLQMNSLKPEDTAVYYCAAHPLQNCCGGSAYASPEAVYEYWGQGTQVTVSS
notes: also called DLLBII07B05; DLLBII7B5; not shown: C-terminal c-myc tag and His6 tag
B15: DLLBII19D10 (VHH)
VHH: EVQLVESGGGLVQAGDSLRLSCAASGRTVGSYDMSWVRQGPGKEREWVSSINSGVGKTYYADSVKGRFTIFRDNAKNMVYLQMNNLKPEDTAVYYCATEMDGSRYVEGQGTQVTVSS
notes: as for B12
B16: DLLBII8C11 (VHH)
VHH: EVQLVESGGGLVQAGGSLRLSCAASGFTFDDYAIGWFRQAPGKEREGVSCISSHDRTTYYADSVKGRFTISSDNAKNTVYLQMNSLKPEDTAVYYCAADPLVCGYNDPRLADYWGQGTQVTVSS
notes: also called DLLBII08C11; not shown: C-terminal c-myc tag and His6 tag
B17: DLLBII17F10 (VHH)
VHH: EVQLVESGGGLVQAGGSLRLSCASSGRTLLNYAMGWFRQAPGKEREFVSGINWSGGSTYYADSVKGRFTISRDNAENTVYLHMNSLKPEDTAVYYCAAAHDNYWFTDDSLGRGLKYWGQGTQVTVSS
notes: not shown: C-terminal c-myc tag and His6 tag
B18: DLLBII19F12 (VHH)
VHH: EVQLVESGGGLVQAGGSLRLSCTASGSTFTSYAMGWYRQAPGKQRELVAAISSDDSTYYADCVKGRFTISRDNAKNTVYLQMNSLKPEDTAVYYCNAPHSDYDEEAPSDFGSWGQGTQVTVSS
notes: as for B12
B19: DLLBII17C01 (VHH)
VHH: EVQLVESGGGLVQAGGSLRLSCAASGFTFDDYPIGWLRQAPGKEREGVSCISSSDDSTYYADSVKGRFTISSNNAKNTVYLQMNSLKPEDTAVYYCAVRLFSGGCAVVAGTSWADFGSSGQGTQVTVSS
notes: tested as periplasmic extract; also called DLLBII17C1; not shown: C-terminal c-myc tag and His6 tag
B20: DLLBII83G01 (VHH)
VHH: EVQLVESGGGLVQAGGSLRLSCAASGRTFSNYIMGWFRQAPGKEREFVAGISRYADYTGYADSVKGRFTISRDNVKNTVYLRMNSLKPDDTAVYYCAANEGYCSGYGCYEDSGQYDYWGQGTQVTVSS
notes: tested as periplasmic extract; also called DLLBII83G1; not shown: C-terminal c-myc tag and His6 tag
B21: DLLBII104G01 (VHH)
VHH: EVQLVESGGGLVQAGGSLRLSCAASGFTFDDYAIGWFRQAPGKEREGVSCISSSDGSTYYADSVKGRFTISSDNAKNTVYLQMNSLKPEDTAVYYCATAWCDSSWYRSFVGYWGQGTQVTVSS
notes: also called DLLBII104G1; 104G1; not shown: C-terminal c-myc tag and His6 tag

The binders below were run against T2, recombinant human DLL4, C-terminally His-tagged extracellular domain (R&D Systems) (human, UniProt Q9NR61 25-522, biotinylated where used in competition ELISA, AlphaScreen and on SA chips) (assay: binding ELISA, coated rhDLL4).
T2 construct: also called rhDLL4; hDLL4; not shown: C-terminal His tag
T2 sequence (Q9NR61 25-522): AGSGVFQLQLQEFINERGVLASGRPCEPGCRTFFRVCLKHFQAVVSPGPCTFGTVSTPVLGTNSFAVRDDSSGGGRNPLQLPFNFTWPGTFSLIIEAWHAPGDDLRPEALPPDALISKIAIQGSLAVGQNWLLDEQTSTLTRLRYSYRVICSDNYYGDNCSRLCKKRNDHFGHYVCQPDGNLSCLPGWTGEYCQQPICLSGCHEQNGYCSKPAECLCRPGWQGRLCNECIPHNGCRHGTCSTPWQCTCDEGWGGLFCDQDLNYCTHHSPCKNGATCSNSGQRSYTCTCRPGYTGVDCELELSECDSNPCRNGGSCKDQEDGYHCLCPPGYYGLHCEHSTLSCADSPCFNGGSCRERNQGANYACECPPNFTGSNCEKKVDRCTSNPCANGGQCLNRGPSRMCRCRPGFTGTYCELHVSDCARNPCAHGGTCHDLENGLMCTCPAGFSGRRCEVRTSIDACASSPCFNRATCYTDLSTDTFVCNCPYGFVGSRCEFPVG

EC50 (read off the curve) | Binder
~0.6 nM | B1
~0.6 nM | B2
~0.6 nM | B3

The binders below were run against T1, human DLL1 (Alexis) (assay: binding ELISA, coated rhDLL1).

binding result | Binder
no binding (tested: 1e-6 M) | B1
no binding (tested: 1e-6 M) | B2
no binding (tested: 1e-6 M) | B3

Target: T1, human DLL1 (Alexis)
Assay: binding ELISA, coated rhDLL1
Remark: another data set of the same source

binding result | Binder
no binding (tested: 1e-6 M) | B4
no binding (tested: 1e-6 M) | B5
no binding (tested: 1e-6 M) | B6
no binding (tested: 1e-6 M) | B7

The binders below were run against T2, recombinant human DLL4, C-terminally … (assay: competition ELISA, periplasmic extract).

ELISA hDLL4 % inhibition | Binder
86% | B8
23% | B9
98% | B10
98% | B11
93% | B12
76% | B13
84% | B14
98% | B15
57% | B16
98% | B17
98% | B18
82% | B19

What follows are binders tested against T3, human Jagged-1 (Alexis) (human, UniProt P78504 34-1067, limits assumed) (assay: binding ELISA, coated rhJagged-1).
T3 construct: also called hJag-1; hJAG1

binding result | Binder
no binding (tested: 1e-6 M) | B1
no binding (tested: 1e-6 M) | B2
no binding (tested: 1e-6 M) | B3

Target: T3, human Jagged-1 (Alexis)
Assay: binding ELISA, coated rhJagged-1
Remark: another data set of the same source

binding result | Binder
no binding (tested: 1e-6 M) | B4
no binding (tested: 1e-6 M) | B5
no binding (tested: 1e-6 M) | B6
no binding (tested: 1e-6 M) | B7

These binders were tested against T2, recombinant human DLL4, C-terminally … (assay: hDLL4/hNotch1-Fc AlphaScreen, periplasmic extract).
Description: Periplasmic extracts are screened in a human DII4/human Notch1 AlphaScreen assay to assess the blocking capacity of the expressed VHHs. Human DII4 is biotinylated using biotin (Sigma, St Louis, Mo., USA) and biotinamidohexanoic acid 3-sulfo-N-hydroxysuccinimide ester sodium salt (Sigma, St Louis, Mo., USA). […] To evaluate the neutralizing capacity of the VHHs, dilution series of the periplasmic extracts are pre-incubated with biotinylated human DII4. To this mixture, the acceptor beads and the streptavidin donor beads are added and further incubated for 1 hour at room temperature. Fluorescence is measured by reading plates on the Envision Multilabel Plate reader (Perkin Elmer, Waltham, Mass., USA) using an excitation wavelength of 680 nm and an emission wavelength of 520 nm.

Alpha Screen hDLL4 % inhibition | Binder
75% | B8
54% | B9
95% | B11
82% | B12
77% | B13
85% | B15
88% | B17
98% | B18
84% | B19

What follows are binders tested against T4, full length human DLL4 on overexpressing CHO or HEK293 cells (human, UniProt Q9NR61 27-685) (assay: FMAT, hNotch1/Fc on CHO-hDLL4, periplasmic extract).
T4 construct: also called CHO-hDLL4; HEK293-hDII4
T4 sequence (Q9NR61 27-685 limits assumed): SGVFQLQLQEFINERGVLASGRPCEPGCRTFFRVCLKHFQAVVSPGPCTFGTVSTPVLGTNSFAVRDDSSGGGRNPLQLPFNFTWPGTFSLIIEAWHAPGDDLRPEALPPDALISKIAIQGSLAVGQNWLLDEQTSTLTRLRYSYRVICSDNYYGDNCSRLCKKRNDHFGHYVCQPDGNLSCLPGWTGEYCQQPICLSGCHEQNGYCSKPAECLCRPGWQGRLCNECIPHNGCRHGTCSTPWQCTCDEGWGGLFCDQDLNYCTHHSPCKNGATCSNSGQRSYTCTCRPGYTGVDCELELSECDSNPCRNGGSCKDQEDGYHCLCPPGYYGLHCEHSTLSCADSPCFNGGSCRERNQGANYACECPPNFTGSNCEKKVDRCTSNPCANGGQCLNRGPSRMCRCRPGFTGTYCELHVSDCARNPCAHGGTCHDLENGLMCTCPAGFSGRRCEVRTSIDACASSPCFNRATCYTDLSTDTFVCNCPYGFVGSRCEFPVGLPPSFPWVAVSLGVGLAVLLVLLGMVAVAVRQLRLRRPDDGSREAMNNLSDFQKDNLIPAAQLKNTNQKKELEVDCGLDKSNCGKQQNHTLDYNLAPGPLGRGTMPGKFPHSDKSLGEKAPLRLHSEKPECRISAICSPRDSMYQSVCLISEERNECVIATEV
From the text: (§1) All calculations are based on the FL1 total signal which comprises the average of the fluorescence per well times the number of counts per well.

FMAT hDLL4 % inhibition | Binder
87% | B20
94% | B21

These binders were tested against T5, full length mouse DLL4 on overexpressing CHO or HEK293 cells (mouse, UniProt Q9JI71 27-686) (assay: FMAT, hNotch1/Fc on CHO-mDLL4, periplasmic extract).
T5 construct: whole, on cells; also called CHO-mDLL4; mDLL4
T5 sequence (Q9JI71 27-686): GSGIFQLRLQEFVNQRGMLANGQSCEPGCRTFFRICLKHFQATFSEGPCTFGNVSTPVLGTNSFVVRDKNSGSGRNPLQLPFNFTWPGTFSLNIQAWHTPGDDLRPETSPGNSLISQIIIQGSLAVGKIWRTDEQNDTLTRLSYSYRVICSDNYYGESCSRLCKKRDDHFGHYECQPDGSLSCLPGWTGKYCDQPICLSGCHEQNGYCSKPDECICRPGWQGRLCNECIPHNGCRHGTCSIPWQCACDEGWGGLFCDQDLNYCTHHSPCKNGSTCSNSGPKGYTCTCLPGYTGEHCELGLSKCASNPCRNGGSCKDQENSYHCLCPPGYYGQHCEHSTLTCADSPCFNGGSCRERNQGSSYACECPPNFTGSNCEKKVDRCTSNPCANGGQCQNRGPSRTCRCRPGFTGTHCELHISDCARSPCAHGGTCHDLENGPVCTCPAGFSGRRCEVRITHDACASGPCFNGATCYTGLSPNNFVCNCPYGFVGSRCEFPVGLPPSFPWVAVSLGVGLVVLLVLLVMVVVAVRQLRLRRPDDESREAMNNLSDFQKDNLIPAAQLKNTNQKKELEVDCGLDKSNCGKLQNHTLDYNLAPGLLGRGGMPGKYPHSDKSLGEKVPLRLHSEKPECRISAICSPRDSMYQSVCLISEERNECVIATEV
From the text: as §1

FMAT mDLL4 % inhibition | Binder
93% | B20
86% | B21

What follows are binders tested against T5, full length mouse DLL4 on … (assay: FMAT competition: labelled hNotch1/Fc on CHO-mDLL4 cells).
From the text: as §1

IC50 (read off the curve) | Binder
~50 nM | B20
64 to 70 nM | B21
